Experimental data as given in patent US20190015519A1, “MMP-SENSITIVE TAXANE PRODRUG” (Incanthera Ltd, priority 2015, published 2019).
Several values for one entry are separate records, joined by “and”; a condition that tells them apart may be missing. Equal values may be shown once. Entries after “also recorded” stand apart in the source; their conditions may differ.

What was measured:
[1] = PK study (PC3) ICT3205 - 15mg/kg (5mg/kg taxol) IP Almost undetectable concentrations of ICT3205 in tumour
Method: Table printed on a drawing sheet, Fig. 21
Title: PK study (PC3) ICT3205 - 15mg/kg (5mg/kg taxol) IP Almost undetectable concentrations of ICT3205 in tumour
Footnotes: Tumour AUC ↑ x10-fold Tumour Cmax ↑ x10-fold } For ACTIVE Taxol / ALSO Tissue AUC ↓ Tissue Cmax ↓ x10-fold } For ACTIVE Taxol
The patent's description of the figure: FIG. 21 provides a table highlighting in greater detail the disparity of distribution between normal tissues and tumour tissues for paclitaxel alone, parent ICT3205 and paclitaxel release from the prodrug.
First reader's note: The ratio cells span the three analyte rows of each tissue and are repeated in each row; the first PC3 row is printed as 'ICT2305' (boxed) and has its own empty Cmax Ratio cell.

[2] = In vivo murine pharmacokinetic study monitoring paclitaxel release in tumour, tissues and plasma
Description: The early peak drug concentrations associated with paclitaxel dosing are removed by administration of prodrug. A 10-fold increase in tumour concentration of paclitaxel is observed following administration as ICT3205.
FIG. 21 provides a table highlighting in greater detail the disparity of distribution between normal tissues and tumour tissues for paclitaxel alone, parent ICT3205 and paclitaxel release from the prodrug.

[3] = Top 3 Taxol Compounds (20uM) PC3 Vs LNCaP (x2) Vs PNT2 Cell-based assay
Method: Table printed on a drawing sheet, Fig. 9 (Cont.)
Title: Top 3 Taxol Compounds (20uM) PC3 Vs LNCaP (x2) Vs PNT2 Cell-based assay
Footnotes: [diagonal hatching] Tumour (51-100%) / Non-Tumour (0-15%) / [horizontal hatching] Tumour & Non-Tumour (26-50%) / [cross hatching] Tumour (0-25%) / Non-Tumour (51-100%)
First reader's note: Continuation of Fig. 9; cell shading (hatching) classifies the values by the legend, and all compounds were tested at 20uM in cell culture.

[4] = Incubation with PC3 tumour homogenate (tumour activation); format: in vitro ADME
Description: A paclitaxel (Taxol) standard is shown in the top trace,
(§1) The relative importance of individual amino acids within the MT-MMP peptide recognition sequence has been investigated following extensive ex vivo metabolic studies. These studies employed tissue homogenates to assess activation of prodrug conjugates in tumour (PC-3) tissues and stability in normal tissues (liver kidney lung).

MMP14 = MMP14 (Homo sapiens, UniProt P50281); experiment: Cleavage by recombinant MMP14 in vitro (HPLC traces, mass spectrometry); format: biochemical; conditions: over 18 h
[5] = Systemic toxicity by mouse body weight; format: in vivo; conditions: mice
PC3 xenografts = experiment: Anti-tumour efficacy study in PC3 xenografts; format: in vivo, mouse; conditions: PC3-bearing mice; single dose; ICT3205 20 mg/kg, paclitaxel 7 mg/kg (molar equivalent)
[6] = ALL Taxol Compounds (1uM) (ALL Tissue Metabolism)
Method: Table printed on a drawing sheet, Fig. 11
Title: ALL Taxol Compounds (1uM) (ALL Tissue Metabolism)
Footnotes: Tumour (51-100%) / Liver (0-15%) / Tumour & Liver (26-50%) / Tumour (0-25%) / Liver (51-100%)
First reader's note: Cell hatching codes the classes given in the legend; all compounds tested at 1uM in tissue homogenates.

[7] = Metabolism in LNCaP prostate cancer cell line; format: in vitro ADME
[8] = Incubation with normal tissue homogenates (normal tissue stability); format: in vitro ADME
Method: Parent molecules are incubated with tissue homogenate and half lives calculated Green indicates acceptable whereas red is unacceptable.
as §1

[9] = test system: prostate tumour-associated MT-MMPs; experiment: Incubation in tissue culture media containing prostate tumour cells; format: cell-based; conditions: incubation at 20 um in tissue culture media with cells; compared to other agents tested
[10] = ALL Taxol Compounds (1uM) PC3 Vs Liver Vs HT1080 Metabolism
Method: Table printed on a drawing sheet, Fig. 7 (Cont.)
Title: ALL Taxol Compounds (1uM) PC3 Vs Liver Vs HT1080 Metabolism
(§2) Footnotes: [diagonal hatching] Tumour (51-100%) / Liver (0-15%) / [horizontal hatching] Tumour & Liver (26-50%) / [cross hatching] Tumour (0-25%) / Liver (51-100%)
First reader's note: Continuation of Fig. 7; cell hatching classifies the values per the legend, and the title states 1uM while the head row states 1mM.

MMP 15 = MMP 15 (Homo sapiens, UniProt P51511); experiment: Cleavage by recombinant MMP15 in vitro (HPLC traces); format: biochemical; conditions: over 18 h
[11] = ALL Taxol Compounds (10uM) PC3 Vs Liver Vs HT1080 Metabolism
Method: Table printed on a drawing sheet, Fig. 8 (Cont.)
Title: ALL Taxol Compounds (10uM) PC3 Vs Liver Vs HT1080 Metabolism
as §2
First reader's note: Continuation of Fig. 8; the title prints 10uM while the head row prints 10mM, and cell hatching marks the classes given in the legend.

Chain of MMP 15 (P51511 132-669): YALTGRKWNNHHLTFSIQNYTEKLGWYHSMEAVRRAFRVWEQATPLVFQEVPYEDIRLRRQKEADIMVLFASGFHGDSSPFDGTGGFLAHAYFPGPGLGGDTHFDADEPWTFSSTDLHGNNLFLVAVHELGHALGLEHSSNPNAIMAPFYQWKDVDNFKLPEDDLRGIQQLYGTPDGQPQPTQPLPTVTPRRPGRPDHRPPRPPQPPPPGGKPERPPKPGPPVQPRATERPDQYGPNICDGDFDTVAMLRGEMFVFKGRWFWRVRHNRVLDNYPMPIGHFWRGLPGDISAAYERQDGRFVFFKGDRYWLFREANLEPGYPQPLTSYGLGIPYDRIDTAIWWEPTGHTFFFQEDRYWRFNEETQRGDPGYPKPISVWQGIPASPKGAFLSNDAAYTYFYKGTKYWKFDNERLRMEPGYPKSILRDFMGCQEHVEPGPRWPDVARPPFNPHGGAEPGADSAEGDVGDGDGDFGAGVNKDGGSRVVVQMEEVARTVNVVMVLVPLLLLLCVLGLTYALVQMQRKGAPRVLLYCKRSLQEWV

## CC(=O)O[C@H]1C(=O)[C@@]2(C)C([C@H](OC(=O)c3ccccc3)[C@]3(O)C[C@H](OC(=O)[C@H](OC(=O)OCc4ccc(NC(=O)[C@H](CC(C)C)NC(=O)[C@H](Cc5ccc(O)cc5)NC(=O)[C@H](CCc5ccccc5)NC(=O)CNC(=O)[C@H](CCCNC(N)=O)NC(=O)[C@H](CO)NC(=O)[C@H](CCCNC(=N)N)NC(=O)CCNC(=S)Nc5ccc6c(c5)C(=O)OC65c6ccc(O)cc6Oc6cc(O)ccc65)cc4)[C@@H](NC(=O)c4ccccc4)c4ccccc4)C(C)=C1C3(C)C)[C@]1(OC(C)=O)CO[C@@H]1C[C@@H]2O (some centres unmarked) [ICT3205]
[1]
  Tmax: 4 h and 2 h
[2]; heart
  levels of paclitaxel released from ICT3205 in heart: < 500 nM
[2]; normal tissues, AUC in uM.h, ICT3205 20 mg/kg vs paclitaxel 7 mg/kg
  AUC ratio of paclitaxel released from ICT3205 compared to paclitaxel administered alone, normal tissues: 0.05-0.99
[2]; other tissues, ICT3205 20 mg/kg vs paclitaxel 7 mg/kg
  Cmax ratio of paclitaxel released from ICT3205 vs paclitaxel alone, other tissues: 0.02-0.19
[2]; plasma
  levels of paclitaxel released from ICT3205 in plasma: below detectable levels
[2]; tumour, AUC in uM.h, ICT3205 20 mg/kg vs paclitaxel 7 mg/kg
  AUC ratio of paclitaxel released from ICT3205 compared to paclitaxel administered alone, tumour: 16.2
[2]; tumour, ICT3205 20 mg/kg vs paclitaxel 7 mg/kg
  Cmax ratio of paclitaxel released from ICT3205 vs paclitaxel alone, tumour: 9.77
[2]; tumour, versus equimolar paclitaxel alone
  increase in tumour concentration of paclitaxel following administration as ICT3205: 10 fold
[3]
  Cell Culture Metabolism (20uM) | LNCaP (2) Taxol Release (% gain): 81 % gain
  Cell Culture Metabolism (20uM) | LNCaP Stability (% loss): 100 % loss
  Cell Culture Metabolism (20uM) | LNCaP Taxol Release (% gain): 73 % gain
  Cell Culture Metabolism (20uM) | PC3 Stability (% loss): 84 % loss
  Cell Culture Metabolism (20uM) | PC3 Taxol Release (% gain): 49 % gain
  Cell Culture Metabolism (20uM) | PNT2 Stability (% loss): 21 % loss
  Cell Culture Metabolism (20uM) | PNT2 Taxol Release (% gain): 12 % gain
[4]; PC3 prostate cancer cell line homogenate
  metabolism (disappearance, activation) of conjugate in PC3: disappearance; also recorded: metabolised equally quickly; also recorded: metabolised rapidly
[4]; PC3 tumour homogenate
  paclitaxel release in PC3 tumour: differential release of free paclitaxel; also recorded: appearance of paclitaxel
MMP14
  cleavage by recombinant MMP14: cleavage
[5]
  toxicity and adverse systemic effects as indicated by mouse body weight: no toxicity and no adverse systemic effects
PC3 xenografts
  anti-tumour effect (growth delay): highly significant growth delay; also recorded: superior anti-tumour effects
[6]
  Tissue Homogenate Metabolism (1uM) | Kidney Stability (% loss): 4 % loss
  Tissue Homogenate Metabolism (1uM) | Kidney Taxol Release (% gain): 4 % gain
  Tissue Homogenate Metabolism (1uM) | Lung Stability (% loss): 19 % loss
  Tissue Homogenate Metabolism (1uM) | Lung Taxol Release (% gain): 12 % gain
[7]
  metabolism of conjugate in LNCaP: metabolised equally quickly
[8]; kidney and liver, over other molecules
  stability in kidney and liver homogenates: marked increased stability
[8]; liver homogenate
  appearance of paclitaxel in liver homogenate: not in the liver
  conjugate stability in liver homogenate: relative stability
[8]; liver, kidney, lung
  stability in normal tissue homogenates: stable; also recorded: long in vitro ‘half-life’ and stability
[9]
  cleavage by prostate tumour-associated MT-MMPs and release of paclitaxel: superior cleavage
[10]
  Tissue Homogenate Metabolism (1 µM) | HT1080 Stability (% loss): 60 % loss
  Tissue Homogenate Metabolism (1 µM) | HT1080 Taxol Release (% gain): 58 % gain
  Tissue Homogenate Metabolism (1 µM) | Liver Stability (% loss): 12 % loss
  Tissue Homogenate Metabolism (1 µM) | Liver Taxol Release (% gain): 19 % gain
  Tissue Homogenate Metabolism (1 µM) | PC3 Stability (% loss): 77 % loss
  Tissue Homogenate Metabolism (1 µM) | PC3 Taxol Release (% gain): 85 % gain
MMP 15
  cleavage by recombinant MMP 15: cleavage
[11]
  Tissue Homogenate Metabolism (10 µM) | HT1080 Stability (% loss): 48 % loss
  Tissue Homogenate Metabolism (10 µM) | HT1080 Taxol Release (% gain): 55 % gain
  Tissue Homogenate Metabolism (10 µM) | Liver Stability (% loss): 12 % loss
  Tissue Homogenate Metabolism (10 µM) | Liver Taxol Release (% gain): 21 % gain
  Tissue Homogenate Metabolism (10 µM) | PC3 Stability (% loss): 54 % loss
  Tissue Homogenate Metabolism (10 µM) | PC3 Taxol Release (% gain): 60 % gain

## CC(=O)O[C@H]1C(=O)[C@@]2(C)[C@H]([C@H](OC(=O)c3ccccc3)[C@]3(O)C[C@H](OC(=O)[C@H](O)[C@@H](NC(=O)c4ccccc4)c4ccccc4)C(C)=C1C3(C)C)[C@]1(OC(C)=O)CO[C@@H]1C[C@@H]2O [paclitaxel, Paclitaxel, reference compound]
PC3 xenografts
  anti-tumour effect (growth delay): no significant anti-tumour effect; also recorded: no efficacy

## MeO (PEG) [ICT3200]
[3]
  Cell Culture Metabolism (20uM) | LNCaP (2) Stability (% loss): 62 % loss
  Cell Culture Metabolism (20uM) | LNCaP (2) Taxol Release (% gain): 51 % gain
  Cell Culture Metabolism (20uM) | LNCaP Stability (% loss): 61 % loss
  Cell Culture Metabolism (20uM) | LNCaP Taxol Release (% gain): 62 % gain
  Cell Culture Metabolism (20uM) | PC3 Stability (% loss): 89 % loss
  Cell Culture Metabolism (20uM) | PC3 Taxol Release (% gain): 49 % gain
  Cell Culture Metabolism (20uM) | PNT2 Stability (% loss): 60 % loss
  Cell Culture Metabolism (20uM) | PNT2 Taxol Release (% gain): 22 % gain
[6]
  Tissue Homogenate Metabolism (1uM) | Kidney Stability (% loss): 32 % loss
  Tissue Homogenate Metabolism (1uM) | Kidney Taxol Release (% gain): 25 % gain
  Tissue Homogenate Metabolism (1uM) | Lung Stability (% loss): 64 % loss
  Tissue Homogenate Metabolism (1uM) | Lung Taxol Release (% gain): 31 % gain
[10]
  Tissue Homogenate Metabolism (1 µM) | HT1080 Stability (% loss): 72 % loss
  Tissue Homogenate Metabolism (1 µM) | HT1080 Taxol Release (% gain): 29 % gain
  Tissue Homogenate Metabolism (1 µM) | Liver Stability (% loss): 5 % loss
  Tissue Homogenate Metabolism (1 µM) | Liver Taxol Release (% gain): 5 % gain
  Tissue Homogenate Metabolism (1 µM) | PC3 Stability (% loss): 82 % loss
  Tissue Homogenate Metabolism (1 µM) | PC3 Taxol Release (% gain): 36 % gain
[11]
  Tissue Homogenate Metabolism (10 µM) | HT1080 Stability (% loss): 61 % loss
  Tissue Homogenate Metabolism (10 µM) | HT1080 Taxol Release (% gain): 30 % gain
  Tissue Homogenate Metabolism (10 µM) | Liver Stability (% loss): 0 % loss
  Tissue Homogenate Metabolism (10 µM) | Liver Taxol Release (% gain): 8 % gain
  Tissue Homogenate Metabolism (10 µM) | PC3 Stability (% loss): 80 % loss
  Tissue Homogenate Metabolism (10 µM) | PC3 Taxol Release (% gain): 36 % gain
